Patent US20240262917A1, “ANTIBODIES AGAINST ALK AND METHODS OF USE THEREOF” (Dana-Farber Cancer Institute, Inc., priority 2021, published 2024)
Entries after “also recorded” stand apart in the source; their conditions may differ.

Tests used:
Type in all cases: binding
[1] = target: T1, full-length ALK receptor (Homo sapiens, UniProt Q9UM73); experiment: Immunoprecipitation of ALK from neuroblastoma cell lysates; conditions: immunoblotting with commercial anti-ALK C-terminal antibody
T1 construct: endogenous in cells
T1 sequence (Q9UM73 19-1620): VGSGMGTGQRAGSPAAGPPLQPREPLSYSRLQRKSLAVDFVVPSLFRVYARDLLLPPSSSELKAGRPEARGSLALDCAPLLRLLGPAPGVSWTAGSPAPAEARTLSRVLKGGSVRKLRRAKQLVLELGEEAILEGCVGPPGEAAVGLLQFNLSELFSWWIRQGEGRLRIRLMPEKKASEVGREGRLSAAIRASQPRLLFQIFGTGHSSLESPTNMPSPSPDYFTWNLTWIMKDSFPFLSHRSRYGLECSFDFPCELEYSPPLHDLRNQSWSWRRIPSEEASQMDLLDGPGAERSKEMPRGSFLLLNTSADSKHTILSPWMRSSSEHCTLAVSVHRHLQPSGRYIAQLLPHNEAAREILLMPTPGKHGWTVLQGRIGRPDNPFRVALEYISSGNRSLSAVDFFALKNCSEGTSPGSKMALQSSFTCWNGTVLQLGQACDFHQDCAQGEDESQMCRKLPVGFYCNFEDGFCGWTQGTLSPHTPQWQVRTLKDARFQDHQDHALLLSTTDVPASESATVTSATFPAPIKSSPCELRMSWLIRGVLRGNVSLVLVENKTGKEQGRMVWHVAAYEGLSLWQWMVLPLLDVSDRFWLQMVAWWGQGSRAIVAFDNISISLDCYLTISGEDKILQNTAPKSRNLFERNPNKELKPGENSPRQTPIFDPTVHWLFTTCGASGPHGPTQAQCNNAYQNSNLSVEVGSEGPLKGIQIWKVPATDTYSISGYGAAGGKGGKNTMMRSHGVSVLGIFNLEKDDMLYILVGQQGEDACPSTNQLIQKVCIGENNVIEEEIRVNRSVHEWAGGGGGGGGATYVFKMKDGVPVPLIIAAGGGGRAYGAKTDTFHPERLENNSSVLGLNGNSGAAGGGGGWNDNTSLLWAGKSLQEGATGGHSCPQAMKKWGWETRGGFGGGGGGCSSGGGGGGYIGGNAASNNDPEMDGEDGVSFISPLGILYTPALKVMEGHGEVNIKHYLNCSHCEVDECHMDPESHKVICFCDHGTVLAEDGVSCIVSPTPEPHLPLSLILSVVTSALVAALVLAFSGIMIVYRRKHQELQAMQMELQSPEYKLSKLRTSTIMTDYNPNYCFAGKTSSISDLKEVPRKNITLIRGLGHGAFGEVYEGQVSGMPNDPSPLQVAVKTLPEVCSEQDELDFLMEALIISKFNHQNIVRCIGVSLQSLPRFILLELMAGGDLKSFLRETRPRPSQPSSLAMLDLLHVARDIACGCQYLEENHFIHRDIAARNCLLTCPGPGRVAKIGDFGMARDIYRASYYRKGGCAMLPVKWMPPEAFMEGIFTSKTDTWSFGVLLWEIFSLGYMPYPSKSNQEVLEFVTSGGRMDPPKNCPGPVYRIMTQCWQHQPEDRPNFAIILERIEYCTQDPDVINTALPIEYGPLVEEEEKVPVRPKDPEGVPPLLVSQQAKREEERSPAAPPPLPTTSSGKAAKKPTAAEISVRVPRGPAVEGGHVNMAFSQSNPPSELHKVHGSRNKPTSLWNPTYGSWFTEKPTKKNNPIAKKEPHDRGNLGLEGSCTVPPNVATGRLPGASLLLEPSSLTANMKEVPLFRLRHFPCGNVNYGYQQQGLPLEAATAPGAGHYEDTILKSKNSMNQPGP
From the text: Cell lysates from the indicated neuroblastoma cell lines were subjected to immunoprecipitation (IP) using 8G7 and subsequently to immunoblotting analysis using the commercial anti-ALK C-terminal antibody.

[2] = target: T2, ALK (Homo sapiens, UniProt Q9UM73); experiment: Western blot analysis of ALK in cell lysates and conditioned media; design: endogenous in cells; host or cells: human neuroblastoma lines (NGP, SH-SY5Y, Kelly and others)
From the text: (A) Western blot analysis of ALK in Kelly and SHEP neuroblastoma cells overexpressing GFP and mutated ALK using the mAb-7 and 8G7 anti-ALK antibodies. The mAb-7 antibody was developed at the Vigny laboratory (INSERM, Unité 706/Université Pierre et Marie Curie, Paris F-75005, France) (Moog-Lutz et al, 2005; PMID: 15886198) and obtained through a Materials Transfer Agreement. (B) Western blot analysis of ALK expression in various non-neuroblastoma cell lines: H1373 (human […]), HeLa (cervical cancer), NIH-3T3 (transformed mouse fibroblast cells) using 8G7 and C26G7 (rabbit monoclonal C-terminal anti-ALK antibody; Cell Signaling Technology; Cat #3333; RRID:AB_836862) anti-ALK antibodies.
The three HPLC-purified monoclonal antibodies (5H3, 7F7 and 8G7) all of the IgG1 subtype, were tested for their ability to bind to ALK in neuroblastoma cells expressing ALK. Both cell lysates and supernatants from cells grown with and without serum (to increase the expression of ALK) were tested by western blotting. […] (A) Western blot analysis of the indicated hybridoma clones in neuroblastoma cell lines expressing WT (NGP) and mutated (SHSY5Y, Kelly) ALK. NIH3T3 cells were used as controls. (B) Western blot analysis of conditioned media from NGP neuroblastoma and 293T cells engineered to express the WT ALK receptor, with the three ALK mAbs showing binding with the shed ALK extracellular domain. […]
Cell lysates were prepared in NP-40 buffer (Invitrogen) containing complete protease inhibitor (Roche), phosphatase inhibitor (Roche) and phenylmethylsulfonyl fluoride (PMSF). Lysates were incubated on ice for 20 min and centrifuged at 16,000 g for 15 min at 4° C. Protein concentrations of the supernatants were determined with the DC protein assay kit (Bio-Rad). Protein samples were denatured using NuPAGE LDS sample buffer (Invitrogen) and NuPAGE sample reducing agent (Invitrogen). Proteins were then separated on precast 4-12% Bis-Tris gels (Invitrogen) and transferred to nitrocellulose membranes (Bio-Rad). After blocking in blocking buffer (5% dry milk in TBS with 0.2% Tween-20), membranes were incubated with the primary antibody overnight at 4 °C, washed three times with TBST buffer, chemiluminescent detection performed with the appropriate secondary antibodies and developed using Genemate Blue ultra-autoradiography film (VWR).

[3] = test system: ALK receptor; experiment: Immunocytochemistry and immunohistochemistry staining of ALK; conditions: 293T and NB9464 cells expressing WT ALK; tumor tissue from ALK F1174L/MYCN transgenic mouse model
ALK receptor, sequence (Q9UM73 19-1038 limits assumed): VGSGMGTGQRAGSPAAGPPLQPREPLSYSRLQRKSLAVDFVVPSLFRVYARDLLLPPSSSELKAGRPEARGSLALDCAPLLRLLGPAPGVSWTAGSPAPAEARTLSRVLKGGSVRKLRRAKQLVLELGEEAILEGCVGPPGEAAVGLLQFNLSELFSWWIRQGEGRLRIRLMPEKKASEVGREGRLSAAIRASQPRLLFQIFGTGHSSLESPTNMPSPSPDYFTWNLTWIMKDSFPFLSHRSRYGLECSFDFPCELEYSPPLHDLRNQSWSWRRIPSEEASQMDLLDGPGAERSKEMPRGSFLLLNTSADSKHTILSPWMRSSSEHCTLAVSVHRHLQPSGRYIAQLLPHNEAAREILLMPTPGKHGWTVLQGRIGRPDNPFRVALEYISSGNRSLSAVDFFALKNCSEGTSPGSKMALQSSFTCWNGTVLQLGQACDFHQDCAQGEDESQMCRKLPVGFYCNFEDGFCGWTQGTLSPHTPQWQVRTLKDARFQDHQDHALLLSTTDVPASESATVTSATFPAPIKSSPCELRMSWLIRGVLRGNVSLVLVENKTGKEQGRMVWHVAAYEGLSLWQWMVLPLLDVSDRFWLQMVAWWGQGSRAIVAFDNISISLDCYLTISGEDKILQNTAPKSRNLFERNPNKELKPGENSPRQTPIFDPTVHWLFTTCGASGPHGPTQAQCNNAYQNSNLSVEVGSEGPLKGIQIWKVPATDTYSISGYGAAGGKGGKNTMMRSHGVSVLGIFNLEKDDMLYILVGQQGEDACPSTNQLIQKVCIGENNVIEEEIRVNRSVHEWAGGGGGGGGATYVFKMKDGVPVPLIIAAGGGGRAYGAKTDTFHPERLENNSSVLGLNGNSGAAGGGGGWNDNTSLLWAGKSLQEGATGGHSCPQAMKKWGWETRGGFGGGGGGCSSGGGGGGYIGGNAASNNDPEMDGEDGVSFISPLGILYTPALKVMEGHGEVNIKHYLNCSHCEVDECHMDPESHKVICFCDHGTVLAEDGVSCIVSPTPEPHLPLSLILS
From the text: (A). Immunocytochemistry staining with the 8G7 antibody of 293T and NB9464 (mouse neuroblastoma cells derived from Th-MycN transgenic tumor model; Weiss et al, 1997) cells expressing a control vector or WT ALK. 5×10^6 cells were fixed in 10% formalin and images captured using a Zeiss AXIO Imager Z1 fluorescence microscope following staining. (B) Immunohistochemistry of tumor tissue from the ALK F1174L/MYCN transgenic mouse model using the 8G7 antibody.

[4] = target: T2, ALK; experiment: Screening and subcloning of hybridomas (ELISA, FCM, functional assays); design: The human ALK extracellular domain (19-682 aa) fused to the mouse Fc gene; made in house; host or cells: 293T cells; conditions: after subcloning by limiting dilution
Procedure: HAT-selected fused cells were distributed in 96 well plates and the hybridoma supernatants were subjected to several rounds of screening. Initial screening was performed using ELISA against human Fc to test antigen binding with the ALK ECD-human Fc fusion protein. […] These were rescreened by FACS against Ba/F3 and neuroblastoma (NB) cells expressing ALK. From this screen, 22 positive hybridoma supernatants were tested in an antigen-binding capture ELISA assay and 11 were subsequently selected for further analysis. (A) Binding of hybridoma supernatants using an antigen-binding capture assay. The plate was coated with goat-anti-mouse IgG Fc, incubated with hybridoma supernatants, followed by ALK-HRP and visualized using an HRP substrate. (B) Binding of selected hybridoma supernatants to a human Fc antibody using ELISA screening. Plates were coated with the ALK ECD-human Fc fusion protein (ALK-hFc) together with an irrelevant hFc protein and visualized using an anti-mouse kappa light chain antibody. Only the supernatants with the highest binding are shown.
Supernatants from individual clones were then screened by ELISA and FACS analysis for ALK binding. Shown here is the viability of NGP neuroblastoma cells (expressing ALK) in the presence of anti-mouse IgG antibody in hybridoma clone supernatants. […]
Target sequence in this assay (Q9UM73 19-682): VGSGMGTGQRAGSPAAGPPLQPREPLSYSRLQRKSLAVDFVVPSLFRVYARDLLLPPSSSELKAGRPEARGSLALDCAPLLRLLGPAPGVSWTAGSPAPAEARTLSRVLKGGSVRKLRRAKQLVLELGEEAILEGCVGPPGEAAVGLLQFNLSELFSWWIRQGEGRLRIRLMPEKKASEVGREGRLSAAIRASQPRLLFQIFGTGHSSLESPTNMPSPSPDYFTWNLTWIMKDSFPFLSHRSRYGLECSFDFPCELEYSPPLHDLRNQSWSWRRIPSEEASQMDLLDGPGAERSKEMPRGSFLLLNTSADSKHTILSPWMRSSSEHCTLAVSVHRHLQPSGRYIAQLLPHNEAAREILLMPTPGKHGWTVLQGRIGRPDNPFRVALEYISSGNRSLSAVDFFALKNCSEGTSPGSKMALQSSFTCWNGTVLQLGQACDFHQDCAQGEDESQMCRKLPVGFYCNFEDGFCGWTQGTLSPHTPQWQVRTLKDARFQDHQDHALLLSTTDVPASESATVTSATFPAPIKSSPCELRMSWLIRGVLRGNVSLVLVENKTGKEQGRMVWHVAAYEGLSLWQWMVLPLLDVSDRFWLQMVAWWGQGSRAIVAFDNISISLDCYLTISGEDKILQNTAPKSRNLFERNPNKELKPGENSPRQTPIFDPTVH

ALK specificity of the clone's monoclonal antibody [4]: high ALK specificity
B1: 8G7: murine monoclonal IgG1 anti-ALK antibody to the N-terminal ECD of human ALK; VH SEQ ID NO: 3, VL SEQ ID NO: 4 (antibody, V domains shown)
VH: QVQLQQSGAELVRPGASVTLSCKASGYTFTDYEMHWVKQTPVHGLEWIGAIDPETGGSAYNQKFKAKAILTADRSSSTAYMELRSLTSEDSAVYYCTRTRYYGSSPAMDYWGQGTSVTVSS
VL: DIQMTQTTSSLSASLGDRVTISCSASQGIGNYLNWYQQKPDGTVKLLIYYTSSLHSGVPSRFSGSGSGTDYSLTISNLEPEDIATYYCQQYSKLPYTFGGGTKLEIK
immunoprecipitation of ALK [1]: can immunoprecipitate ALK; also recorded: immunoprecipitated only the full-length 220 kDa form of ALK
ALK protein recognized by western blotting in cell lysates ([2]; cell lysates of neuroblastoma cells expressing ALK): recognized a 220 kDa protein in the cell lysates of neuroblastoma cells; also recorded: detected the 220 kDa full-length protein but not the 140 kDa fragment in cell lysates
ALK protein recognized by western blotting in media ([2]; conditioned media of NB cells, shed ECD domain): an approximately 100 kDa protein in the media; also recorded: ALK fragment with a molecular mass of approximately 100 kDa was identified in the conditioned media of all five NB cell lines
binding in immunocytochemistry and immunohistochemistry [3]: showed binding in engineered cells and transgenic mice tumors
